# Assay results from patent US5294543.
# Molecular target: fibrinogen receptor on platelets (Homo sapiens (Human)) (UniProt P08514)
substance,measurement,value
chrysoptin,IC50 of inhibition of platelet aggregation induced by 5 µM ADP,16 nM
